# Reference: US20170326249A1 (Bristol-Myers Squibb, published 2017)
# Substitutions are numbered along the chain they refer to.
# B1: Antibody C (antibody, human IgG1, kappa, V domains shown)
# VH: EVQLVQSGAEVKKPGESLKISCKGSGYSFTRYWIAWVRQMPGKGLEWMGIIFPGDSHTGYSPSFQGQVTISADRSISTAYLQWSSLKASDTAMYYCARTREGYFDYWGQGTLVTVSS
# VL: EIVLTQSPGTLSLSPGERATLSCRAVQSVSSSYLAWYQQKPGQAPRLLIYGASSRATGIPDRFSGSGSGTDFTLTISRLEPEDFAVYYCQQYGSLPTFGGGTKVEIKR
# notes: Variable-region variant of GPC3.1, IgG1/kappa; also called variant antibody C
# B2: Antibody A (antibody, human IgG1, kappa, V domains shown)
# VH: B1 VH with R31S, S77R, E101Q
# VL: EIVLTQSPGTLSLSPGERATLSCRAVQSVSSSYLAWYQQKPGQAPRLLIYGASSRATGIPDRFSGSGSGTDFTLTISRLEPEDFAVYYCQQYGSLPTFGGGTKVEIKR
# notes: Variable-region variant of GPC3.1, IgG1/kappa; also called variant antibody A
# B3: Antibody B (antibody, human IgG1, kappa, V domains shown)
# VH: B1 VH with Q65R, R74K
# VL: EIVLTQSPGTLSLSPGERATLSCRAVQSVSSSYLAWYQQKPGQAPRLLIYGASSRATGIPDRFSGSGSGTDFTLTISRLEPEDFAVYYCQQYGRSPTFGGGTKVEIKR
# notes: Variable-region variant of GPC3.1, IgG1/kappa; also called variant antibody B
# Target: T1, Glypican-3 (UniProt P51654 25-559, limits assumed)
# T1 construct: also called GPC3
# Test: Biacore (SPR)
Binder,Kd [nM],koff [s⁻¹],kon [M⁻¹ s⁻¹]
B1,0.9,0.0016,1.7e+06
B2,2.7,0.0029,1.1e+06
B3,2.2,0.0036,1.7e+06
